± gives the uncertainty stated by the source.
Test: amyloid nucleation score (Sup35N fusion, yeast selection) (log enrichment); library NNK1; higher = more nucleation; inactive = no reads after selection
Outline: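 Output and input plasmid inserts were sequenced by Illumina after psi-negative yeast carrying Sup35N fused to peptides of 20 random codons had been induced 24 hours with 100 μM copper sulfate and grown 7 days at 30°C on medium lacking adenine and uracil. The nucleation score is the DiMSum log enrichment of output over input reads, centred on the mode score of non-aggregating sequences. Sequences with under 100 input reads were excluded.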
Work on VCSLSVYRTCSRDLFNFIWV yielded an amyloid nucleation score of 0.262 ± 0.41. With SGRWLYVLVPICMPYVAELS the amyloid nucleation score was “inactive”. In the case of DNMYIFEN, the amyloid nucleation score is reported as -0.352 ± 0.46. Work on MSVNSRNMNKYLFWNKL yielded an amyloid nucleation score of -0.029 ± 0.3. APRHDCMSSDLQVVKMDFLL showed an amyloid nucleation score of 0.799 ± 0.41. Substance MKSALKALTEHSPQSYDWCR has an amyloid nucleation score of -0.4 ± 0.61. With NPRLCPKDMRGRPQEKRVPQ the amyloid nucleation score was -0.345 ± 1.7. With NCPFEW the amyloid nucleation score was -0.116 ± 0.55. PFVARQHMNPFTVVGTNLCH showed an amyloid nucleation score of -0.376 ± 1.9. For FRLVNIIR, the amyloid nucleation score was 0.317 ± 0.33. Substance EVMVSAGVTIACSPVVIRFR has an amyloid nucleation score of 1.47 ± 0.54. Substance VAWLNCSTKVGL has an amyloid nucleation score of -0.053 ± 1.3. Work on KVFQQGC yielded an amyloid nucleation score of -0.165 ± 1.6. For SMSPWDFNICCMNVCTTLLT, the amyloid nucleation score was 2.77 ± 0.25. With WSTNNCCYA the amyloid nucleation score was -1.38 ± 2.1. Work on SFEDGGLMFMAPDIRGTGTR yielded an amyloid nucleation score of 0.884 ± 0.79. Substance LRRSTFASVDLRRADFIKLF has an amyloid nucleation score of 0.165 ± 0.69. For CLFSRELTLSPLWDLVK, the amyloid nucleation score was 1.79 ± 0.15. FAWVDPGFLWDNLTPGTDRC gave an amyloid nucleation score of 0.253 ± 0.43. Work on TSSCLVYL yielded an amyloid nucleation score of -0.413 ± 0.55. With FMLCNFLVVIYSGSR the amyloid nucleation score was 5.82 ± 0.063. For SLTCWG, the amyloid nucleation score was 0.436 ± 0.33. In the case of VIGVRAQYLCRHTLSVRYRK, the amyloid nucleation score is reported as 1.67 ± 0.4. With NREVYKMLLGCFSIHISCNR the amyloid nucleation score was “inactive”. With YELRFMRVEQGSQYREVS the amyloid nucleation score was -0.159 ± 0.37. FIFVIDTRVLRTLINCPTPS gave an amyloid nucleation score of -0.047 ± 0.36. VLDGNKLQSRSLSCSSWYLS gave an amyloid nucleation score of 4.03 ± 0.12. IFGFVWDPKTNYMTGLFASI gave an amyloid nucleation score of -0.231 ± 0.5. RKFVC showed an amyloid nucleation score of -0.729 ± 1.7. In the case of FLMLRAYESMARFYDVLWIG, the amyloid nucleation score is reported as 0.088 ± 0.37. QFVQAGRKLGNNVDGWKYVC showed an amyloid nucleation score of -0.997 ± 0.5. Substance CIGWSNGAPRCNQGRQRDRG has an amyloid nucleation score of 0.828 ± 0.66. HQIYVLATETNSPMLRWKLQ showed an amyloid nucleation score of 0.879 ± 0.98. In the case of SWCFN, the amyloid nucleation score is reported as 1.34 ± 0.59. In the case of RLLRPFGWLANSRLTTVWFH, the amyloid nucleation score is reported as -0.122 ± 0.68. LTPRRYIWTYLSWGDAGLEL gave an amyloid nucleation score of 1.02 ± 0.9. THTYGGDG showed an amyloid nucleation score of -0.096 ± 0.74. With VDLLGTTDGRSRVLFRIRTR the amyloid nucleation score was 0.151 ± 0.59. For RSFCRSSVIFVFP, the amyloid nucleation score was 2.79 ± 0.19. CHVSLYRMDIGLQYRTGRIW showed an amyloid nucleation score of 0.645 ± 0.52. DMFVGKTRMRRGSVMLYFMG gave an amyloid nucleation score of 0.829 ± 0.52. Substance VLSRIHCCRTPVDNGFRPQG has an amyloid nucleation score of -0.95 ± 0.94. For YCVIHSIRLGRIHLDCFWDF, the amyloid nucleation score was “inactive”. Substance GWVGLLH has an amyloid nucleation score of 0.457 ± 0.31. In the case of SRLYVCFALSSLSISRNNYG, the amyloid nucleation score is reported as 3.11 ± 0.22. In the case of SKSRLL, the amyloid nucleation score is reported as 0.006 ± 0.4. HGYHVHDGALLNQHNIS showed an amyloid nucleation score of 0.004 ± 0.57. Substance SEFASLERSHSHLYMWEFSL has an amyloid nucleation score of 0.171 ± 0.63. Work on CNTPSTCNCVIVRPSYPSQY yielded an amyloid nucleation score of -0.088 ± 0.61. Substance MAICSGMTSWAVLLEVWN has an amyloid nucleation score of 0.504 ± 0.57. Substance RTTFA has an amyloid nucleation score of 0.38 ± 0.33. Substance GNWYLCTGF has an amyloid nucleation score of 1.58 ± 0.1. Substance ASPVLFKWICPIYTS has an amyloid nucleation score of 2.87 ± 0.15. With HNFKCHLKSCKVSNFN the amyloid nucleation score was -1.02 ± 2.4. Work on SVWLANCYGKYMGVVCYSKV yielded an amyloid nucleation score of 0.537 ± 0.32. VIASELSSCFSLRHNVVTTS gave an amyloid nucleation score of -0.469 ± 1.2. Substance SVDGL has an amyloid nucleation score of -0.763 ± 0.2. DRATGISEAVEWHGRWVGKN showed an amyloid nucleation score of -0.534 ± 0.83. In the case of ASNYR, the amyloid nucleation score is reported as 0.008 ± 0.88. RMLDY showed an amyloid nucleation score of 0.318 ± 1.2. In the case of PCQFMASSYFHK, the amyloid nucleation score is reported as “inactive”. Work on RSYLCDREYCVFGFCLGIYS yielded an amyloid nucleation score of 3.44 ± 0.15. In the case of IPPNSWMKSRNCTKLTARVY, the amyloid nucleation score is reported as -0.312 ± 1.4. In the case of FPTFLPQWTGKCFALRCGRW, the amyloid nucleation score is reported as “inactive”. HCFPCLVVIV showed an amyloid nucleation score of 0.121 ± 0.36. EGITHVFIRDGVGSYLKAET gave an amyloid nucleation score of 1.33 ± 0.58. In the case of MGFVGPENAKDYCSRGV, the amyloid nucleation score is reported as 0.357 ± 0.5. In the case of MSCYLQAFDITTTTNDASWW, the amyloid nucleation score is reported as -0.95 ± 1.6. Work on VKVIVIHAAC yielded an amyloid nucleation score of -0.256 ± 0.31. FSHGFMITICHWEMTKETDW showed an amyloid nucleation score of -0.476 ± 0.37. For YVEPSF, the amyloid nucleation score was -0.083 ± 0.97. Work on VLPLQKPRDVGSVISARQWG yielded an amyloid nucleation score of 0.837 ± 0.53. TMRSNRLFRICFCLGKKYWL showed an amyloid nucleation score of -0.562 ± 0.33. FCRFQDR gave an amyloid nucleation score of -0.785 ± 0.64. In the case of THQGWYSQNEHERRWIVHSF, the amyloid nucleation score is reported as 0.028 ± 0.58. SVRVPEHGRRWVSKGVG showed an amyloid nucleation score of -0.785 ± 1.1. Work on KMSVRNVTDFGVRLVRYFNG yielded an amyloid nucleation score of 1.42 ± 0.22. For EYVHLNQVNDAGGVDSGTLS, the amyloid nucleation score was 0.823 ± 0.28. Substance NLECFTCFFLYTIDMNLKP has an amyloid nucleation score of 4.94 ± 0.053. NYEYRDYASDERLYGSGTML gave an amyloid nucleation score of 0.103 ± 0.37. In the case of LVSQLSFACN, the amyloid nucleation score is reported as 0.92 ± 0.83. In the case of HKIHAVQLLQVRYLNKRLAG, the amyloid nucleation score is reported as 0.96 ± 0.17. LWSLVCSELCWDVLFNALPG showed an amyloid nucleation score of -1.03 ± 0.71. Work on TGPVLTPKSCYFGHINSSCF yielded an amyloid nucleation score of -0.009 ± 0.29. Substance FLHVPVLFSFTHCFMG has an amyloid nucleation score of 3.03 ± 0.13. Substance LILSYAN has an amyloid nucleation score of 1.33 ± 0.66.
